# Results reported in publication PMC5715112 (2017).
# B1: VH59 fused to the VP16 activation domain (pEF-VP16, CHO cells) / GAL4 DNA binding domain (DBD)-LEDGF IBD fusion (pM1, CHO cells) [not stated] (parent complex)
# chain 1: EVQLLESGGGLVQPGGSLRLSCAASGFTFSTFSMNWVRQAPGKGLEWVSYISRTSKTIYYADSVKGRFTISRDNSKNTLYLQMNSLRAEDTAVYYCARGGWALGDEIPSSFLEFDYWGQGTLVTVS
# chain 2: ETSMDSRLQRIHAEIKNSLKIDNLDVNRCIEALDELASLQVTMQQAQKHTEMITTLKKIRRFKVSQVIMEKSTMLYNKFKNMFLVGE
# Variants of: B1
# Assay: mammalian two-hybrid luciferase reporter assay in CHO cells; 48 h after transfection; Firefly luciferase normalised to Renilla; read off a plot
row,Variant,response
1,chain 2 K20A,~0.71
2,chain 2 V64A,~0.12
3,chain 2 F62A,~0.05
4,chain 2 D22A,~0.79
5,chain 2 L19A,~0.08
6,chain 2 L24A,~0.02
7,chain 2 K58A,~0.09
8,chain 2 R61A,~2
9,chain 2 I21A,~0.05
10,chain 2 K63A,~0.35

# Variants of: B1
# Assay: mammalian two-hybrid luciferase reporter assay in CHO cells; 48 h after transfection; Firefly/Renilla luciferase; n = 3; read off a plot
row,Variant,response
1,chain 1 Y116A,~0.92
2,chain 1 Y95A,~0.04
3,chain 1 L45A,~1.2
4,chain 1 W117A,~0.04
5,chain 1 D115A,~0.04

# Variants of: B1
# Assay: as above
# Remark: another data set of the same source
row,Variant,response
1,chain 1 S110A,~0.04
2,chain 1 P108A,~0.04
3,chain 1 L112A,~0.05
4,chain 1 F111A,~0.04
5,chain 1 S109A,~0.46
